Read-outs that look alike come from different tables or passages of the source.
What was measured:
[1] = target: HLA-A*1101 (human); test: competition binding assay; purified HLA-A*1101, unlabeled peptide against 125I-labeled probe peptide, gel filtration
[2] = target: HLA-A*1101 (human); test: competition with 125I-labelled standard probe peptide for purified HLA-A*1101, gel filtration
[3] = target: HLA-A*0301 (human); test: competition of unlabeled peptide against 125I-labeled standard probe peptide for purified HLA-A*0301, gel filtration
[4] = target: HLA-A*2402 (human); test: inhibition of 125I-labelled standard peptide binding to purified HLA-A*2402, gel filtration
[5] = target: HLA-A*0201 (human); test: competition with 125I-labelled standard peptide on purified HLA, gel filtration; details: remark: other sources report otherwise
[6] = target: HLA-A*0203 (human); test: as above; details: remark: other sources report otherwise
[7] = target: HLA-A*0206 (human); test: as above; details: remark: other sources report otherwise
[8] = target: HLA-A*0201 (human); test: competition with a 125I-labelled probe peptide for purified HLA-A*0201, gel filtration
[9] = target: HLA-A*0201 (human); test: competition with a 125I-labeled standard peptide for purified HLA-A*0201, gel filtration; ratio to the standard peptide
[10] = target: HLA-A*0201 (purified HLA class I molecule) (human); test: competition assay: unlabeled peptide inhibits binding of a 125I-labeled standard probe peptide to purified HLA-A*0201, gel filtration read-out
[11] = target: purified HLA-A*0201 molecules (human)
[12] = target: HLA-A*0201 (purified HLA class I molecule) (human); test: competition with 125I-labeled standard peptide for purified HLA-A*0201, gel filtration; ratio to the standard peptide
[13] = target: HLA-A*0301 (human)
[14] = target: HLA-A*1101 (human)
[15] = target: HLA-A*3101 (human)
[16] = target: HLA-A*3301 (human)
[17] = target: HLA-A*6801 (human)
[18] = target: HLA-A*0301 (human); remark: listed apart in the source
[19] = target: HLA-A*0301 (human); test: competition with 125I-labelled probe peptide for purified HLA, gel filtration; details: scale: ratio
[20] = target: HLA-A*1101 (human); test: as above; details: scale: ratio
[21] = target: HLA-A*0301 (human); test: competition with 125I-labeled standard peptide for purified HLA-A*0301, gel filtration
[22] = target: HLA-A*1101 (human); test: competition with 125I-labeled standard peptide for purified HLA-A*1101, gel filtration; details: scale: ratio
[23] = target: HLA-A*0101 (human); details: remark: other sources report otherwise

EGTGCNGWFY (modifications not checked) [HPV31 E1 position 10 peptide … (SEQ ID NO: 41699)] gave a binding affinity ratio (relative to the standard peptide) [1] of 0.0002.

In the case of LCPEEKQRH (modifications not checked) [HPV31 E6 peptide … (position 110, 9 amino acids)], the relative binding ratio (IC50 of standard peptide / IC50 of test peptide) (ratio to standard peptide) [2] is reported as 0.0001 and the relative binding ratio (IC50 of standard peptide / IC50 of test peptide) (ratio to standard peptide) [3] is reported as 0.0003.

Work on PLCPEEKQR (modifications not checked) [HPV31 E6 peptide … (position 109, 9 amino acids)] yielded a relative binding ratio (IC50 of standard peptide / IC50 of test peptide) (ratio to standard peptide) [2] of 0.0005 and a relative binding ratio (IC50 of standard peptide / IC50 of test peptide) (ratio to standard peptide) [3] of 0.0002.

In the case of HYSDSVYGDTL (modifications not checked) [… (HPV18 E6, position 80, 11 amino acids)], the relative binding ratio (IC50 of standard peptide / IC50 of test peptide) [4] is reported as 0.0069.

Work on CMCCKCEARI (modifications not checked) [… (HPV18 E7, position 63, 10 amino acids)] yielded a relative binding ratio (IC50 of standard peptide / IC50 of test peptide) [4] of 0.0001.

TLGIVCPI (modifications not checked) [HPV16 E7 86 TLGIVCPI] was tested, and the binding affinity ratio (IC50 of standard peptide / IC50 of test peptide) [5] was 0.15, the binding affinity ratio (IC50 of standard peptide / IC50 of test peptide) [6] was 0.0005 and the binding affinity ratio (IC50 of standard peptide / IC50 of test peptide) [7] was 0.54.

Work on YMLDLQPETT (modifications not checked) [HPV16 E7 11 …] yielded a binding affinity ratio (IC50 of standard peptide / IC50 of test peptide) [5] of 0.15, a binding affinity ratio (IC50 of standard peptide / IC50 of test peptide) [6] of 0.0001 and a binding affinity ratio (IC50 of standard peptide / IC50 of test peptide) [7] of 1.7.

AIFGVNPTI (modifications not checked) [HPV18 E1 246 peptide … (SEQ ID NO: 3274)] showed a relative binding ratio (IC50 of standard peptide / IC50 of test peptide) (ratio to standard peptide) [8] of 0.0021.

LLTTNIHPA (modifications not checked) [HPV18 E1 peptide … (position 570, 9 amino acids)] was tested, and the relative binding ratio (IC50 of standard peptide / IC50 of test peptide) [9] was 0.18.

Work on LLITSNINA (modifications not checked) [HPV31 E1 peptide … (position 542, 9 amino acids)] yielded a relative binding ratio (IC50 of standard peptide / IC50 of test peptide) [10] of 0.0022.

Work on QLKCPPLLI (modifications not checked) [HPV31 E1 peptide … (position 536, 9 amino acids)] yielded a relative binding ratio (IC50 of standard peptide / IC50 of test peptide) [11] of 0.0049.

In the case of SLACSWGMV (modifications not checked) [HPV31 E1 peptide … (position 246, 9 amino acids)], the relative binding ratio (IC50 of standard peptide / IC50 of test peptide) [11] is reported as 0.082.

In the case of CLDCKWGVLI (modifications not checked) [HPV45 E1 peptide … (position 259, 10 amino acids)], the relative binding ratio (IC50 of standard peptide / IC50 of test peptide) [12] is reported as 0.0002.

With CATMCRHYK (modifications not checked) [HPV16 E1 peptide … (position 405, 9 amino acids)] the binding affinity ratio (IC50 of standard peptide / IC50 of test peptide) [13] was 0.0012, the binding affinity ratio (IC50 of standard peptide / IC50 of test peptide) [14] was 0.0098 and the binding affinity ratio (IC50 of standard peptide / IC50 of test peptide) [15] was 0.0077. The binding affinity ratio (IC50 of standard peptide / IC50 of test peptide) [16] was 0.01, the binding affinity ratio (IC50 of standard peptide / IC50 of test peptide) [17] was 0.0056 and the relative binding ratio (IC50 of standard peptide / IC50 of test peptide) (ratio to standard peptide) [18] was 0.0012.

In the case of VVLLLVRYK (modifications not checked) [HPV16 E1 peptide … (position 274, 9 amino acids)], the binding affinity ratio (relative to standard peptide) [19] is reported as 1, the binding affinity ratio (relative to standard peptide) [20] is reported as 0.36 and the relative binding ratio (IC50 of standard peptide / IC50 of test peptide) [21] is reported as 1. The relative binding ratio (A*1101) [22] was 0.36.

Binder WLQPLADAK (modifications not checked) [HPV16 E1 peptide … (position 509, 9 amino acids)] has a binding affinity ratio (relative to standard peptide) [19] of 0.0005, a binding affinity ratio (relative to standard peptide) [20] of 0.0002 and a relative binding ratio (IC50 of standard peptide / IC50 of test peptide) [21] of 0.0005. For the same binder, the relative binding ratio (A*1101) [22] was 0.0002.

ISEYRHYCY (modifications not checked) [HPV16 E6 80 …] gave a binding affinity ratio (IC50 of standard peptide / IC50 of test peptide) [23] of 0.31.

— patent US7026443
